Substitutions are numbered along the chain they refer to.

In experiment [1] the target is T1, cTnI quality control product recombinant protein (human, UniProt P19429 2-210, limits assumed).
T1 construct: treated as the same molecule; also called cTnI antigen; cardiac troponin I
Description: AMC sensor, antibody immobilised, cTnI in solution. As for the experimental part: Operating process: it is equilibrated in Buffer 1 (PBST) for 60 s, the antibody is immobilized in an antibody solution for 300 s, incubated in Buffer 2 (PBST) for 180 s, bound in antigen solution for 420 s, dissociated in the Buffer 2 for 1200 s, 10 mM of GLY solution with pH 1.69 and Buffer 3 are used for sensor regeneration, and data is output. KD represents an equilibrium dissociation constant, namely the affinity; Kon represents a binding rate; and Kd is represents a dissociation rate.

The target of experiment [2] is T1, cTnI quality control product …. Description: sandwich ELISA, antibody 0.457 ng/ml on anti-mouse IgG, cTnI 0.15 ug/ml, HRP second mAb. As for the experimental part: (§1) After mutation, the antibody activity is detected. 1 μg/ml of goat anti-mouse IgG is diluted with coating solution to coat a microwell plate, 100 μL per well, and overnight at 4 DEG C.; on the next day, it is washed twice with washing solution, and patted dry; blocking solution (20% BSA+80% PBS) is added, 120 μL per well, 37 DEG C., and 1 h, and patted dry; a diluted cTnI monoclonal antibody is added, 100 μL/well, 37 DEG C., and 60 min; liquid in the plate is shaken off, patted dry, and 20% of mouse negative blood is added for blocking, 120 μl per well, 37 DEG C., 1 h; liquid in the plate is shaken off, patted dry, a diluted cTnI antigen (0.15 μg/ml) is added, 100 μL per well, 37 DEG C., and 40 min; it is washed for 5 times with the washing solution, and patted dry; another strain of the cTnI monoclonal antibody (1:5K) labeled with HRP is added, 100 μL per well, 37 DEG C., and 30 min; color developing solution A (50 μL/well) is added, color developing solution B (50 μL/well) is added, 10 min; stop solution is added, 50 μL/well; and a OD value is read at 450 nm (refer to 630 nm) on a microplate reader.

The target is the same in experiment [3]. The experiment is described as follows: sandwich ELISA, antibody 1.372 ng/ml on anti-mouse IgG, cTnI 0.15 ug/ml, HRP second mAb. As for the experimental part: as §1
For experiment [4] the target is unchanged. The experiment is described as follows: sandwich ELISA, antibody 4.115 ng/ml on anti-mouse IgG, cTnI 0.15 ug/ml, HRP second mAb. As for the experimental part: as §1
Experiment [5] has the same target. The experiment is described as follows: sandwich ELISA, antibody 12.346 ng/ml on anti-mouse IgG, cTnI 0.15 ug/ml, HRP second mAb. As for the experimental part: as §1
The target is the same in experiment [6]. Description: sandwich ELISA, antibody 37.037 ng/ml on anti-mouse IgG, cTnI 0.15 ug/ml, HRP second mAb. As for the experimental part:
as §1

The target is the same in experiment [7]. Description: sandwich ELISA, antibody 0.000 ng/ml (blank of this series), cTnI 0.15 ug/ml, HRP second mAb. As for the experimental part:
as §1

T1 sequence (P19429 2-210 limits assumed): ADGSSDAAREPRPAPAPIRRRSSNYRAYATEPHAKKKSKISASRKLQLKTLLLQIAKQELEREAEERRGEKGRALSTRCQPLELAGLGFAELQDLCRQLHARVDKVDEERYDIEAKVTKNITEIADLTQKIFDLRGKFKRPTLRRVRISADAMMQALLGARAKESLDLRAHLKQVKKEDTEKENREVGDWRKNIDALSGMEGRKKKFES

B1: Anti-cTnI-21C5 monoclonal antibody (recombinant) (antibody, mouse IgG2b, V domains shown)
VH: EVQLQQSGPELVKPGASVKMSCKASGYSFTLYVVHWVKQKPGQGLEWIGYIQPYLDGTRYNEKFKGKATLTVDKSSSTAFMELSSLTSEDSAVYYCARTGYGGYGLAWLAYWGQGTLVTVSA
VL: QAVVIQESALTTSPGETVTLTCRSSSGAATTSQYANWVQEKPDHLFTGLIGGSNNRAPGVPARFSGSLIGDKAALTITGAQTEDEAIYFCAIVYSNHWVFGGGTKLTVLG
notes: also called WT; Sample 1
Take B1: the Kd in experiment [1] was 70.9 nM. In addition, in experiment [1], the koff was determined as 0.0034 s⁻¹. Besides, the kon in experiment [1] stood at 48000 M⁻¹ s⁻¹. Further, the “OD450 (ref. 630 nm)” value in experiment [2] was determined as 0.365 OD; in experiment [3], 0.612 OD; in experiment [4], 1.19 OD; in experiment [5], 1.97 OD; in experiment [6], 2.16 OD; in experiment [7] it was 0.13 OD.

B2: Mutation 1-17 (antibody, V domains shown)
VH: B1 VH with S28T, V34I, Q52N, R59K, T99S
VL: B1 VL with S26T, Q33N, N54Q, I92L, H97Q
notes: Built as m8
Take B2: in experiment [1], the Kd is 7.37 nM, the koff turned out to be 0.000237 s⁻¹ and the kon amounted to 32100 M⁻¹ s⁻¹.

B3: Mutation 1-49 (antibody, V domains shown)
VH: B1 VH with S28T, V34L, Q52N, R59K, T99S, G103N
VL: B1 VL with S26T, A29V, N54Q, I92L, H97N
notes: Built as m8
Consider B3, for which, in experiment [1], the Kd amounted to 1.51 nM, the koff amounted to 0.000134 s⁻¹ and the kon worked out at 88400 M⁻¹ s⁻¹.

B4: Mutation 1-19 (antibody, V domains shown)
VH: B1 VH with S28T, L31I, V34L, Q52N, R59K, T99S, G103N
VL: B1 VL with S26T, A29V, Q33N, N54Q, I92L, H97Q
notes: Built as m8
Consider B4, for which, in experiment [1], the Kd is 4.81 nM, the koff was found to be 0.000274 s⁻¹ and the association rate constant (kon) turned out to be 57000 M⁻¹ s⁻¹.

B5: Mutation 1-41 (antibody, V domains shown)
VH: B1 VH with S28T, V34I, Q52N, L55I, R59K, T99S, G103N
VL: B1 VL with S26T, A29V, Q33N, N54Q, I92L, H97Q
notes: Built as m8
Regarding B5, in experiment [1], the Kd turned out to be 7.89 nM, the koff is 0.000647 s⁻¹ and the on-rate constant (kon) is 82000 M⁻¹ s⁻¹.

B6: Mutation 1-11 (antibody, V domains shown)
VH: B1 VH with S28T, V34I, Q52N, L55I, R59K, T99S
VL: B1 VL with S26T, A29V, Q33N, N54Q, I92L, H97N
notes: Built as m8
On to B6, for which, in experiment [1], the Kd stood at 4.23 nM, the koff turned out to be 0.000142 s⁻¹ and the kon turned out to be 33500 M⁻¹ s⁻¹.

B7: Mutation 2 (antibody, V domains shown)
VH: B1 VH with R59K, T99S
VL: B1 VL with S26T, A57V
notes: Built as m3, with this row's residues
For the molecule B7, the “OD450 (ref. 630 nm)” value in experiment [2] turned out to be 0.211 OD; in experiment [3], 0.421 OD; in experiment [4], 1.51 OD; in experiment [5] it was 1.94 OD; in experiment [6], 2.1 OD; in experiment [7] it was 0.117 OD.

B8: Mutation 3 (antibody, V domains shown)
VH: B1 VH with S28T, R59H, T99S
VL: B1 VL with A57I, I92A
notes: as for B7
On to B8, for which the “OD450 (ref. 630 nm)” value in experiment [3] was found to be 0.15 OD; in experiment [4], 0.347 OD; in experiment [5], 0.824 OD; in experiment [6] it was 1.58 OD.

B9: Mutation 1 (antibody, V domains shown)
VH: B1 VH with S28T, R59K, T99S
VL: B1 VL with S26T, I92L
notes: CDR mutant of WT
As to B9, the Kd in experiment [1] amounted to 4.2 nM. For the same molecule, the koff in experiment [1] was determined as 0.000214 s⁻¹. In experiment [1], the kon turned out to be 51000 M⁻¹ s⁻¹. Also, the “OD450 (ref. 630 nm)” value in experiment [2] stood at 0.524 OD; in experiment [3], 0.94 OD; in experiment [4] it was 1.89 OD; in experiment [5] it was 2.24 OD; in experiment [6], 2.33 OD; in experiment [7], 0.114 OD.

B10: Mutation 1-55 (antibody, V domains shown)
VH: B1 VH with S28T, L31I, Q52Y, L55I, R59K, T99S
VL: B1 VL with S26T, A29V, N54Q, I92L, H97N
notes: Built as m8
In the case of B10, in experiment [1], the Kd is 4.31 nM, the koff came out at 0.000239 s⁻¹ and the kon came to 55400 M⁻¹ s⁻¹.

The values are drawn from patent US20220033484A1 (FAPON BIOTECH, published 2022).
